The target of the experiment is FluPolB, influenza B/Memphis/2003 polymerase heterotrimer (wild type) (influenza B virus B/Memphis/2003, UniProt Q5V8Z9;Q5V8Y6;Q5V8X3). The experiment can be described thus: SEC.

B1: hANP32A 144-249 (LCAR alone) (domain or fragment)
chain: YLDGYDRDDKEAPDSDAEGYVEGLDDEEEDEDEEEYDEDAQVVEDEEDEDEEEEGEEEDVSGEEEEDEEGYNDGEVDDEEDEEELGEEERGQKRKREPEDEGEDDD
Consider B1, for which the binding result is recorded as “binds”.

For the origin of these results see publication doi:10.1101/2024.04.20.590211 (bioRxiv, 2024).
